± gives the uncertainty stated by the source.
B1: Homeobox protein cut-like 1, residues 548 to 629; numbered along this chain, P39880 (parent)
chain: GEEMDTAEIARQVKEQLIKHNIGQRIFGHYVLGLSQGSVSEILARPKPWNKLTVRGKEPFHKMKQFLSDEQNILALRSIQGR

Variants of: B1
Assay: abundance fitness (aPCA) (normalised: wild type 0, dead -1); higher = more abundant; growth selection in yeast, the domain comes from the species named
Details: Homo sapiens

Variant | abundance fitness
GEEMDTAEIARQVKEQLIKHNIGQRIHGHYVLGLSQGSVSEILARPKPWNKLTVRGKEPFHKMKQFLSDEQNILALRSIQGR [F27H] | -1.14 ± 0.29
GEEMDTAEIARQVKEQLIKHNIGQRIGGHYVLGLSQGSVSEILARPKPWNKLTVRGKEPFHKMKQFLSDEQNILALRSIQGR [F27G] | -0.894 ± 0.041
GEEMDTAEIARQVKEQLIKHNIGQRIIGHYVLGLSQGSVSEILARPKPWNKLTVRGKEPFHKMKQFLSDEQNILALRSIQGR [F27I] | -0.8 ± 0.17
GEEMDTAEIARQVKEQLIKHNIGQRIWGHYVLGLSQGSVSEILARPKPWNKLTVRGKEPFHKMKQFLSDEQNILALRSIQGR [F27W] | -0.572 ± 0.044
GEEMDTAEIARQVKEQLIKHNIGQRINGHYVLGLSQGSVSEILARPKPWNKLTVRGKEPFHKMKQFLSDEQNILALRSIQGR [F27N] | -0.787 ± 0.13
GEEMDTAEIARQVKEQLIKHNIGQRISGHYVLGLSQGSVSEILARPKPWNKLTVRGKEPFHKMKQFLSDEQNILALRSIQGR [F27S] | -0.906 ± 0.079
GEEMDTAEIARQVKEQLIKHNIGQRIQGHYVLGLSQGSVSEILARPKPWNKLTVRGKEPFHKMKQFLSDEQNILALRSIQGR [F27Q] | -0.747 ± 0.073
GEEMDTAEIARQVKEQLIKHNIGQRIKGHYVLGLSQGSVSEILARPKPWNKLTVRGKEPFHKMKQFLSDEQNILALRSIQGR [F27K] | -0.99 ± 0.092
GEEMDTAEIARQVKEQLIKHNIGQRIDGHYVLGLSQGSVSEILARPKPWNKLTVRGKEPFHKMKQFLSDEQNILALRSIQGR [F27D] | -0.862 ± 0.1
GEEMDTAEIARQVKEQLIKHNIGQRICGHYVLGLSQGSVSEILARPKPWNKLTVRGKEPFHKMKQFLSDEQNILALRSIQGR [F27C] | -1.03 ± 0.23
GEEMDTAEIARQVKEQLIKHNIGQRIEGHYVLGLSQGSVSEILARPKPWNKLTVRGKEPFHKMKQFLSDEQNILALRSIQGR [F27E] | -0.906 ± 0.055
GEEMDTAEIARQVKEQLIKHNIGQRIMGHYVLGLSQGSVSEILARPKPWNKLTVRGKEPFHKMKQFLSDEQNILALRSIQGR [F27M] | -0.857 ± 0.08
GEEMDTAEIARQVKEQLIKHNIGQRIVGHYVLGLSQGSVSEILARPKPWNKLTVRGKEPFHKMKQFLSDEQNILALRSIQGR [F27V] | -0.815 ± 0.049
GEEMDTAEIARQVKEQLIKHNIGQRITGHYVLGLSQGSVSEILARPKPWNKLTVRGKEPFHKMKQFLSDEQNILALRSIQGR [F27T] | -0.914 ± 0.071
GEEMDTAEIARQVKEQLIKHNIGQRILGHYVLGLSQGSVSEILARPKPWNKLTVRGKEPFHKMKQFLSDEQNILALRSIQGR [F27L] | -0.47 ± 0.039
GEEMDTAEIARQVKEQLIKHNIGQRIAGHYVLGLSQGSVSEILARPKPWNKLTVRGKEPFHKMKQFLSDEQNILALRSIQGR [F27A] | -1.01 ± 0.057
GEEMDTAEIARQVKEQLIKHNIGQRIYGHYVLGLSQGSVSEILARPKPWNKLTVRGKEPFHKMKQFLSDEQNILALRSIQGR [F27Y] | -1.15 ± 0.23
GEEMDTAEIARQVKEQLIKHNIGQRIRGHYVLGLSQGSVSEILARPKPWNKLTVRGKEPFHKMKQFLSDEQNILALRSIQGR [F27R] | -0.884 ± 0.043
GEEMDTAEIARQVKEQLIKHNIGQRIPGHYVLGLSQGSVSEILARPKPWNKLTVRGKEPFHKMKQFLSDEQNILALRSIQGR [F27P] | -0.861 ± 0.081
GEEMDTAEIARQVKEQLIKHNIGQRGFGHYVLGLSQGSVSEILARPKPWNKLTVRGKEPFHKMKQFLSDEQNILALRSIQGR [I26G] | -0.547 ± 0.026
GEEMDTAEIARQVKEQLIKHNIGQRTFGHYVLGLSQGSVSEILARPKPWNKLTVRGKEPFHKMKQFLSDEQNILALRSIQGR [I26T] | 0.009 ± 0.037
GEEMDTAEIARQVKEQLIKHNIGQRFFGHYVLGLSQGSVSEILARPKPWNKLTVRGKEPFHKMKQFLSDEQNILALRSIQGR [I26F] | -0.078 ± 0.076
GEEMDTAEIARQVKEQLIKHNIGQRDFGHYVLGLSQGSVSEILARPKPWNKLTVRGKEPFHKMKQFLSDEQNILALRSIQGR [I26D] | 0.023 ± 0.045

Variant | abundance fitness
GEEMDTAEIARQVKEQLIKHNIGQRWFGHYVLGLSQGSVSEILARPKPWNKLTVRGKEPFHKMKQFLSDEQNILALRSIQGR [I26W] | -0.083 ± 0.028
GEEMDTAEIARQVKEQLIKHNIGQRYFGHYVLGLSQGSVSEILARPKPWNKLTVRGKEPFHKMKQFLSDEQNILALRSIQGR [I26Y] | -0.107 ± 0.065
GEEMDTAEIARQVKEQLIKHNIGQRSFGHYVLGLSQGSVSEILARPKPWNKLTVRGKEPFHKMKQFLSDEQNILALRSIQGR [I26S] | -0.14 ± 0.033
GEEMDTAEIARQVKEQLIKHNIGQRAFGHYVLGLSQGSVSEILARPKPWNKLTVRGKEPFHKMKQFLSDEQNILALRSIQGR [I26A] | -0.056 ± 0.027
GEEMDTAEIARQVKEQLIKHNIGQRRFGHYVLGLSQGSVSEILARPKPWNKLTVRGKEPFHKMKQFLSDEQNILALRSIQGR [I26R] | -0.401 ± 0.027
GEEMDTAEIARQVKEQLIKHNIGQRKFGHYVLGLSQGSVSEILARPKPWNKLTVRGKEPFHKMKQFLSDEQNILALRSIQGR [I26K] | -0.152 ± 0.036
GEEMDTAEIARQVKEQLIKHNIGQRPFGHYVLGLSQGSVSEILARPKPWNKLTVRGKEPFHKMKQFLSDEQNILALRSIQGR [I26P] | -0.517 ± 0.056
GEEMDTAEIARQVKEQLIKHNIGQRMFGHYVLGLSQGSVSEILARPKPWNKLTVRGKEPFHKMKQFLSDEQNILALRSIQGR [I26M] | -0.082 ± 0.033
GEEMDTAEIARQVKEQLIKHNIGQRCFGHYVLGLSQGSVSEILARPKPWNKLTVRGKEPFHKMKQFLSDEQNILALRSIQGR [I26C] | -0.058 ± 0.044
GEEMDTAEIARQVKEQLIKHNIGQRHFGHYVLGLSQGSVSEILARPKPWNKLTVRGKEPFHKMKQFLSDEQNILALRSIQGR [I26H] | -0.056 ± 0.056
GEEMDTAEIARQVKEQLIKHNIGQRLFGHYVLGLSQGSVSEILARPKPWNKLTVRGKEPFHKMKQFLSDEQNILALRSIQGR [I26L] | -0.002 ± 0.03
GEEMDTAEIARQVKEQLIKHNIGQRVFGHYVLGLSQGSVSEILARPKPWNKLTVRGKEPFHKMKQFLSDEQNILALRSIQGR [I26V] | 0.034 ± 0.026
GEEMDTAEIARQVKEQLIKHNIGQRNFGHYVLGLSQGSVSEILARPKPWNKLTVRGKEPFHKMKQFLSDEQNILALRSIQGR [I26N] | -0.261 ± 0.063
GEEMDTAEIARQVKEQLIKHNIGQRIFGEYVLGLSQGSVSEILARPKPWNKLTVRGKEPFHKMKQFLSDEQNILALRSIQGR [H29E] | 0.06 ± 0.031
GEEMDTAEIARQVKEQLIKHNIGQRIFGNYVLGLSQGSVSEILARPKPWNKLTVRGKEPFHKMKQFLSDEQNILALRSIQGR [H29N] | -0.012 ± 0.054
GEEMDTAEIARQVKEQLIKHNIGQRIFGGYVLGLSQGSVSEILARPKPWNKLTVRGKEPFHKMKQFLSDEQNILALRSIQGR [H29G] | -0.357 ± 0.026
GEEMDTAEIARQVKEQLIKHNIGQRIFGDYVLGLSQGSVSEILARPKPWNKLTVRGKEPFHKMKQFLSDEQNILALRSIQGR [H29D] | -0.036 ± 0.047
GEEMDTAEIARQVKEQLIKHNIGQRIFGMYVLGLSQGSVSEILARPKPWNKLTVRGKEPFHKMKQFLSDEQNILALRSIQGR [H29M] | -0.052 ± 0.037
GEEMDTAEIARQVKEQLIKHNIGQRIFGKYVLGLSQGSVSEILARPKPWNKLTVRGKEPFHKMKQFLSDEQNILALRSIQGR [H29K] | 0.022 ± 0.036
GEEMDTAEIARQVKEQLIKHNIGQRIFGFYVLGLSQGSVSEILARPKPWNKLTVRGKEPFHKMKQFLSDEQNILALRSIQGR [H29F] | -0.15 ± 0.065
GEEMDTAEIARQVKEQLIKHNIGQRIFGLYVLGLSQGSVSEILARPKPWNKLTVRGKEPFHKMKQFLSDEQNILALRSIQGR [H29L] | -0.1 ± 0.03
GEEMDTAEIARQVKEQLIKHNIGQYIFGHYVLGLSQGSVSEILARPKPWNKLTVRGKEPFHKMKQFLSDEQNILALRSIQGR [R25Y] | -0.003 ± 0.06
GEEMDTAEIARQVKEQLIKHNIGQVIFGHYVLGLSQGSVSEILARPKPWNKLTVRGKEPFHKMKQFLSDEQNILALRSIQGR [R25V] | -0.088 ± 0.027

Variant | abundance fitness
GEEMDTAEIARQVKEQLIKHNIGQTIFGHYVLGLSQGSVSEILARPKPWNKLTVRGKEPFHKMKQFLSDEQNILALRSIQGR [R25T] | 0.036 ± 0.034
GEEMDTAEIARQVKEQLIKHNIGQWIFGHYVLGLSQGSVSEILARPKPWNKLTVRGKEPFHKMKQFLSDEQNILALRSIQGR [R25W] | -0.072 ± 0.03
GEEMDTAEIARQVKEQLIKHNIGQSIFGHYVLGLSQGSVSEILARPKPWNKLTVRGKEPFHKMKQFLSDEQNILALRSIQGR [R25S] | 0.078 ± 0.03
GEEMDTAEIARQVKEQLIKHNIGQRIFEHYVLGLSQGSVSEILARPKPWNKLTVRGKEPFHKMKQFLSDEQNILALRSIQGR [G28E] | -0.188 ± 0.031
GEEMDTAEIARQVKEQLIKHNIGQRIFVHYVLGLSQGSVSEILARPKPWNKLTVRGKEPFHKMKQFLSDEQNILALRSIQGR [G28V] | -0.452 ± 0.034
GEEMDTAEIARQVKEQLIKHNIGQRIFYHYVLGLSQGSVSEILARPKPWNKLTVRGKEPFHKMKQFLSDEQNILALRSIQGR [G28Y] | -0.374 ± 0.1
GEEMDTAEIARQVKEQLIKHNIGQRIFKHYVLGLSQGSVSEILARPKPWNKLTVRGKEPFHKMKQFLSDEQNILALRSIQGR [G28K] | -0.745 ± 0.067
GEEMDTAEIARQVKEQLIKHNIGQRIFDHYVLGLSQGSVSEILARPKPWNKLTVRGKEPFHKMKQFLSDEQNILALRSIQGR [G28D] | -0.349 ± 0.054
GEEMDTAEIARQVKEQLIKHNIGQRIFAHYVLGLSQGSVSEILARPKPWNKLTVRGKEPFHKMKQFLSDEQNILALRSIQGR [G28A] | 0.018 ± 0.027
GEEMDTAEIARQVKEQLIKHNIGQRIFNHYVLGLSQGSVSEILARPKPWNKLTVRGKEPFHKMKQFLSDEQNILALRSIQGR [G28N] | -0.259 ± 0.075
GEEMDTAEIARQVKEQLIKHNIGQRIFFHYVLGLSQGSVSEILARPKPWNKLTVRGKEPFHKMKQFLSDEQNILALRSIQGR [G28F] | -0.329 ± 0.1
GEEMDTAEIARQVKEQLIKHNIGQRIFRHYVLGLSQGSVSEILARPKPWNKLTVRGKEPFHKMKQFLSDEQNILALRSIQGR [G28R] | -0.52 ± 0.03
GEEMDTAEIARQVKEQLIKHNIGQRIFCHYVLGLSQGSVSEILARPKPWNKLTVRGKEPFHKMKQFLSDEQNILALRSIQGR [G28C] | -0.223 ± 0.051
GEEMDTAEIARQVKEQLIKHNIGQRIFQHYVLGLSQGSVSEILARPKPWNKLTVRGKEPFHKMKQFLSDEQNILALRSIQGR [G28Q] | -0.457 ± 0.044
GEEMDTAEIARQVKEQLIKHNIGQRIFTHYVLGLSQGSVSEILARPKPWNKLTVRGKEPFHKMKQFLSDEQNILALRSIQGR [G28T] | -0.47 ± 0.048
GEEMDTAEIARQVKEQLIKHNIGQRIFSHYVLGLSQGSVSEILARPKPWNKLTVRGKEPFHKMKQFLSDEQNILALRSIQGR [G28S] | -0.05 ± 0.033
GEEMDTAEIARQVKEQLIKHNIGQRIFIHYVLGLSQGSVSEILARPKPWNKLTVRGKEPFHKMKQFLSDEQNILALRSIQGR [G28I] | -0.233 ± 0.095
GEEMDTAEIARQVKEQLIKHNIGQRIFMHYVLGLSQGSVSEILARPKPWNKLTVRGKEPFHKMKQFLSDEQNILALRSIQGR [G28M] | -0.241 ± 0.042
GEEMDTAEIARQVKEQLIKHNIGQRIFPHYVLGLSQGSVSEILARPKPWNKLTVRGKEPFHKMKQFLSDEQNILALRSIQGR [G28P] | -0.726 ± 0.069
GEEMDTAEIARQVKEQLIKHNIGQRIFWHYVLGLSQGSVSEILARPKPWNKLTVRGKEPFHKMKQFLSDEQNILALRSIQGR [G28W] | -0.764 ± 0.056
GEEMDTAEIARQVKEQLIKHNIGQRIFHHYVLGLSQGSVSEILARPKPWNKLTVRGKEPFHKMKQFLSDEQNILALRSIQGR [G28H] | -0.485 ± 0.083

Reference: the Human Domainome abundance scans (Beltran et al. 2025)
